Assay results from US11054428B2, “Inhalable nanosensors with volatile reporters and uses thereof” (Massachusetts Institute of Technology, priority 2018, dated 2021).

Columns and labels:
[1] = biological target: T1, neutrophil elastase (NE) (Mus musculus, UniProt Q3UP87); test: Mechanistic study: NE inhibitor given before nanosensor in infected mice, breath signal; assay type: in vivo; conditions: 5 mg/kg intratracheal, 15 min before nanosensor, infected mice (FIG. 12)
T1 construct: from tissue; host or cells: lungs of CD-1 mice, healthy or infected with P. aeruginosa PAO1 (homogenates ex vivo, or lung in vivo)
T1 sequence (Q3UP87 27-265): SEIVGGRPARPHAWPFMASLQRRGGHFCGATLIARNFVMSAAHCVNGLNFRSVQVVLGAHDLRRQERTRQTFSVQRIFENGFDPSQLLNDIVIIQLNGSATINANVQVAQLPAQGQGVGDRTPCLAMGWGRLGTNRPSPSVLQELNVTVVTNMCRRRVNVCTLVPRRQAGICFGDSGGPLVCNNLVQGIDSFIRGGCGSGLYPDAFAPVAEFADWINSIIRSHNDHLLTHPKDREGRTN

[2] = biological target: T2, lung homogenates (neutrophil elastase) (Mus musculus, UniProt Q3UP87); test: Ex vivo reporter release from nanosensors mixed with infected and healthy lung homogenates; parameters: species or system CD-1 mice; conditions: 24 h post-inoculation with P. aeruginosa PAO1 (FIG. 3C)
T2 construct: from tissue; host or cells: lungs of CD-1 mice, healthy or infected with P. aeruginosa PAO1 (homogenates ex vivo, or lung in vivo)
T2 sequence (Q3UP87 27-265): T1 sequence (Q3UP87 27-265)
Procedure: Ultimately, the goal was to administer nanosensors into the lungs of mouse models of bacterial pneumonia to test for measurable reporter levels in the breath. Prior to direct administration into animal infection models, nanosensors were mixed ex vivo with infected and healthy lung homogenates. Bacterial pneumonia was established in CD-1 mice by intratracheal injection of 1.5×10^6 cfu Pseudomonas aeruginosa strain PAO1 (FIG. 3A). At 24 h post-inoculation, the time at which mice were euthanized and lung homogenates were prepared, infected lung homogenates had ˜22-fold greater neutrophil elastase concentration than healthy lung homogenates (FIG. 3B and FIG. 7). […] When mixed with nanosensors, infected lung homogenates triggered 5-fold faster reporter release compared to healthy lung homogenates (FIG. 3C).

[3] = biological target: T1, neutrophil elastase (NE); assay type: in vivo, mice
Procedure: With confirmation that infected lungs trigger greater reporter release and at detectable levels, nanosensors were then tested in acute pneumonia mouse models. […] Infected-7 and Infected-12, which have high initial reporter levels, have nanosensors predominantly in the airway. […] Reporters released from the sensor in the airways are expected to be expired in the breath more rapidly than free reporters deeper in the lung as the tidal volume is only a fraction of the total volume of the lung. […] In fact, infected breath samples at 16 min (18 min post-injection) have 3-fold higher mean reporter levels than breath samples from healthy controls (p=0.0035) (FIG. 4E and FIG. 6, right).
Therefore, subsequent studies focused on nanosensors with pentafluoropropylamine or heptafluoropropylamine reporters. […] Breath signal was reduced by ˜70% due to inhibitor administration, confirming the role of NE in releasing reporters in vivo to generate breath signal (FIG. 12).

## CC(C)(C)C(=O)Oc1ccc(S(=O)(=O)Nc2ccccc2C(=O)NCC(=O)O)cc1 [sivelestat]
[1]
  reduction of breath signal: ~70%

## nanosensor: NE peptide substrate Nle(O-Bzl)-Met(O)2-Oic-Abu with C-terminal PFC reporter, conjugated via CKKK-PEG4 linker to 40 kDa 8-arm PEG; pentafluoropropylamine reporter in vivo (CKKKXXXX; not fully specified; non-natural residues)
[2]
  reporter release rate, infected vs healthy lung homogenates: 5 fold
[3]; 10, 20 and 30 min after administration, low and high doses (FIGS. 10A-10B)
  breath signal, infected vs healthy mice: significantly higher
[3]; 10 vs 100 μM doses
  dose dependence of breath signal: dose-dependent
[3]; 10 min, low dose (10 μM), p=0.0062
  AUROC for identifying infected mice by breath signal: 1.0
[3]; 16 min timepoint (18 min post-injection), p=0.0035
  mean reporter levels in breath, infected vs healthy controls: 3 fold
[3]; 20 min breath collection, p<0.05
  reporter levels in breath, infected vs healthy (2-way ANOVA): significantly greater
[3]; FIG. 11B
  duration of SNR >1.0 relative to unattached peptide substrate: ~3 ×
[3]; after first 14 min of breath collection (FIG. 4B)
  reporter levels in breath, infected mice vs healthy controls after convergence: ~3 fold
[3]; after inhalation
  time to disease-distinguishing reporter signal in the breath: ≤ 20 min
[3]; after nanosensor inhalation
  earliest time of perfect distinction between mice with and without bacterial pneumonia: ≥ 12 min
[3]; infected mice (FIG. 11A)
  breath signal vs peptide substrate unattached to scaffold: higher breath signal than peptide substrates
[3]; infected vs healthy (FIG. 4D)
  timepoint of maximum effect size of reporter levels: 16 min
[3]; intratracheal instillation, 10 μM equivalent peptide dose
  detectability of reporter levels in breath: detectable
